± gives the uncertainty stated by the source.
Experiment: self-splicing fitness, log relative to wild type (ln ratio); higher = more splicing; Tetrahymena group I intron in knt gene, E. coli kanamycin selection, DiMSum; sequences stand for … in CUCUCU…GGAGGGAAAAGUUAUCAGGCAUGCACCUGGUAGCUAGUCUUUAAACCAAUAGAUUGCAUCGGUUUAAAAGGCAAGACCGUCAAAUUGCGGGAAAGGGGUCAACAGCCGUUCAGUACCAAGUCUCAGGGGAAACUUUGAGAUGGCCUUGCAAAGGGUAUGGUAAUAAGCUGACGGACAUGGUCCUAACCACGCAGCCAAGUCCUAAGUCAACAGAUCUUCUGUUGAUAUGGAUGCAGUUCACAGACUAAAUGUCGGUCGGGGAAGAUGUAUUCUUCUCAUAAGAUAUAGUCGGACCUCUCCUUAAUGGGAGCUAGCGGAUGAAGUGAUGCAACACUGGAGCCGCUGGGAACUAAUUUGUAUGCGAAAGUAUAUUGAUUAGUUUUGGAGUACUCGUGGUCG
Procedure, shortened: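 A randomised library covering all eight P1ex-region intron nucleotides was built with the intron in the knt kanamycin-resistance gene on pET-22b(+) and held in E. coli BL21(DE3). Cells were grown overnight at 37°C or 30°C on LB agar, with or without 25 μg/mL kanamycin, plus 100 μg/mL carbenicillin, 50 μM IPTG and 0.2% rhamnose, and pooled colonies were amplicon-sequenced on an Illumina HiSeq 2500. DiMSum fitness is the error-weighted combination of wild-type-normalised replicate fold changes, kanamycin versus none.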

| Sequence | self-splicing fitness (ln) (30 °C) | self-splicing fitness (ln) (37 °C) |
| --- | --- | --- |
| AACUAGCAAUAUUACGGUUC | -4.49 ± 0.24 | -2.94 ± 0.21 |
| AACUAGCAAUAUUACGUAGG | -2.36 ± 0.11 | -1.29 ± 0.12 |
| AACUAGCAAUAUUACGUCUG | -1.86 ± 0.088 | -1.37 ± 0.088 |
| AACUAGCAAUAUUACGUGAU | -1.71 ± 0.11 | -1.09 ± 0.13 |
| AACUAGCAAUAUUACGUGUG | -1.47 ± 0.051 | -0.869 ± 0.067 |
| AACUAGCAAUAUUACGUUUA | -1.98 ± 0.11 | -1.1 ± 0.11 |
| AAGAAGCAAUAUUACGAACC | -0.581 ± 0.14 | -0.25 ± 0.17 |
| AAGAAGCAAUAUUACGACCG | -1.05 ± 0.088 | 0.483 ± 0.14 |
| AAGAAGCAAUAUUACGACUG | -0.231 ± 0.089 | 0.323 ± 0.16 |
| AAGAAGCAAUAUUACGAGGA | -3.43 ± 0.28 | -2.98 ± 0.3 |
| AAGAAGCAAUAUUACGAGUU | -1.15 ± 0.079 | -0.169 ± 0.11 |
| AAGAAGCAAUAUUACGAUAC | -2.94 ± 0.19 | -1.31 ± 0.17 |
| AAGAAGCAAUAUUACGAUCC | -0.553 ± 0.14 | -0.745 ± 0.18 |
| AAGAAGCAAUAUUACGAUCU | 0.00748 ± 0.089 | -0.373 ± 0.11 |
| AAGAAGCAAUAUUACGAUGG | -1.93 ± 0.14 | -2 ± 0.22 |
| AAGAAGCAAUAUUACGAUUG | -2.85 ± 0.26 | -1.78 ± 0.19 |
| AAGAAGCAAUAUUACGCAGC | -3.17 ± 0.38 | -2.12 ± 0.22 |
| AAGAAGCAAUAUUACGCAUC | -1.92 ± 0.22 | -0.986 ± 0.2 |
| AAGAAGCAAUAUUACGCCCG | -0.579 ± 0.18 | -1.38 ± 0.23 |
| AAGAAGCAAUAUUACGCUCA | -0.0265 ± 0.13 | -0.132 ± 0.12 |
| AAGAAGCAAUAUUACGCUUA | -1.05 ± 0.12 | -0.977 ± 0.13 |
| AAGAAGCAAUAUUACGGCUA | -0.552 ± 0.077 | -0.0286 ± 0.1 |
| AAGAAGCAAUAUUACGGUAC | -2.37 ± 0.19 | -2.96 ± 0.33 |
| AAGAAGCAAUAUUACGGUCA | -0.625 ± 0.088 | 0.197 ± 0.1 |
| AAGAAGCAAUAUUACGUACA | -0.642 ± 0.1 | -0.0821 ± 0.12 |
| AAGAAGCAAUAUUACGUAUG | -1.93 ± 0.11 | -1.14 ± 0.1 |

| Sequence | self-splicing fitness (ln) (30 °C) | self-splicing fitness (ln) (37 °C) |
| --- | --- | --- |
| AAGAAGCAAUAUUACGUCGG | -0.907 ± 0.12 | -1.02 ± 0.14 |
| AAGAAGCAAUAUUACGUGCC | -1.01 ± 0.11 | -1.14 ± 0.11 |
| AAGAAGCAAUAUUACGUUUC | -3.62 ± 0.23 | -3.15 ± 0.26 |
| AAGCAGCAAUAUUACGAAGG | -2.99 ± 0.16 | -3.01 ± 0.26 |
| AAGCAGCAAUAUUACGAGAC |  | -0.225 ± 0.15 |
| AAGCAGCAAUAUUACGAUUC | -1.73 ± 0.081 | -0.707 ± 0.092 |
| AAGCAGCAAUAUUACGCCAA | -2.31 ± 0.21 | -2.04 ± 0.21 |
| AAGCAGCAAUAUUACGCGGG | -1.43 ± 0.078 | -1.27 ± 0.1 |
| AAGCAGCAAUAUUACGCGUG | -3.76 ± 0.14 | -2.25 ± 0.11 |
| AAGCAGCAAUAUUACGCUCG | -1.67 ± 0.15 | 0.286 ± 0.14 |
| AAGCAGCAAUAUUACGGCCA | -0.775 ± 0.18 | 0.116 ± 0.25 |
| AAGCAGCAAUAUUACGGCCG | -0.9 ± 0.11 | -0.057 ± 0.17 |
| AAGCAGCAAUAUUACGGCCU | -0.182 ± 0.057 | 0.636 ± 0.074 |
| AAGCAGCAAUAUUACGGGCG | -0.645 ± 0.065 | -0.638 ± 0.099 |
| AAGCAGCAAUAUUACGGUGA | -0.827 ± 0.1 | -1.15 ± 0.092 |
| AAGCAGCAAUAUUACGUAGC | -3.19 ± 0.15 | -1.94 ± 0.16 |
| AAGCAGCAAUAUUACGUAUA | -2.85 ± 0.19 | -2.69 ± 0.19 |
| AAGCAGCAAUAUUACGUCGC | -2.95 ± 0.19 | -2.51 ± 0.31 |
| AAGCAGCAAUAUUACGUCGU | -2.51 ± 0.095 | -0.636 ± 0.12 |
| AAGCAGCAAUAUUACGUCUG | -4.47 ± 0.37 | -1.72 ± 0.26 |
| AAGCAGCAAUAUUACGUGAU | -2.39 ± 0.081 | -1.49 ± 0.11 |
| AAGCAGCAAUAUUACGUGGU | -4.16 ± 0.2 | -1.27 ± 0.11 |
| AAGCAGCAAUAUUACGUUAA | -1.76 ± 0.12 | -2.14 ± 0.14 |
| AAGGAGCAAUAUUACGAAUA | -2.18 ± 0.27 | -2.77 ± 0.38 |
| AAGGAGCAAUAUUACGACGA | -1.94 ± 0.15 | -0.382 ± 0.11 |
| AAGGAGCAAUAUUACGAGGC | -2.89 ± 0.17 | -2.41 ± 0.44 |

| Sequence | self-splicing fitness (ln) (30 °C) | self-splicing fitness (ln) (37 °C) |
| --- | --- | --- |
| AAGGAGCAAUAUUACGAUGG | -3.59 ± 0.27 | -2.11 ± 0.23 |
| AAGGAGCAAUAUUACGCACC |  | -1.22 ± 0.3 |
| AAGGAGCAAUAUUACGCAGU | -3.65 ± 0.43 | -1.38 ± 0.19 |
| AAGGAGCAAUAUUACGCAUA | -2.45 ± 0.49 |  |
| AAGGAGCAAUAUUACGCAUG | -3.28 ± 0.22 | -2.65 ± 0.22 |
| AAGGAGCAAUAUUACGCCCG | -1.88 ± 0.17 | -1.01 ± 0.22 |
| AAGGAGCAAUAUUACGCGAG | -2.86 ± 0.19 | -2.23 ± 0.19 |
| AAGGAGCAAUAUUACGCUCG | -0.454 ± 0.13 | -0.814 ± 0.17 |
| AAGGAGCAAUAUUACGCUGU | -2.59 ± 0.22 | -1.64 ± 0.23 |
| AAGGAGCAAUAUUACGGAAG | -3.7 ± 0.34 | -1.63 ± 0.25 |
| AAGGAGCAAUAUUACGGACU | -1.99 ± 0.16 | -0.907 ± 0.19 |
| AAGGAGCAAUAUUACGGCCA | -1.83 ± 0.19 | -1.66 ± 0.27 |
| AAGGAGCAAUAUUACGGCGU | -1.33 ± 0.13 | -0.923 ± 0.12 |
| AAGGAGCAAUAUUACGGGCG | -4.03 ± 0.39 | -1.87 ± 0.31 |
| AAGGAGCAAUAUUACGGUCA |  | -2.26 ± 0.32 |
| AAGGAGCAAUAUUACGGUUG | -2.52 ± 0.17 | -3.27 ± 0.32 |
| AAGGAGCAAUAUUACGUCUG | -1.18 ± 0.15 | -0.52 ± 0.27 |
| AAGGAGCAAUAUUACGUGGG | -2.68 ± 0.18 | -2.68 ± 0.17 |
| AAGGAGCAAUAUUACGUGGU | -2.94 ± 0.2 | -1.36 ± 0.22 |
| AAGGAGCAAUAUUACGUUAC |  | -1.53 ± 0.35 |
| AAGGAGCAAUAUUACGUUAG | -3.67 ± 0.18 | -2.95 ± 0.22 |
| AAGGAGCAAUAUUACGUUCU | -2.47 ± 0.14 | -1.09 ± 0.12 |
| AAGUAGCAAUAUUACGAAUC | -2.13 ± 0.22 | -1.4 ± 0.25 |
| AAGUAGCAAUAUUACGACUU | -0.629 ± 0.11 | -1.34 ± 0.13 |
| AAGUAGCAAUAUUACGAGAG | -3.09 ± 0.22 | -1.05 ± 0.21 |

— the supplement of paper PMC7877785
